B1: native catalase: tetrameric haemprotein enzyme from Sigma, used as model protein, underivatised (protein, UniProt P00432 2-527, looked up)
Catalase: ADNRDPASDQMKHWKEQRAAQKPDVLTTGGGNPVGDKLNSLTVGPRGPLLVQDVVFTDEMAHFDRERIPERVVHAKGAGAFGYFEVTHDITRYSKAKVFEHIGKRTPIAVRFSTVAGESGSADTVRDPRGFAVKFYTEDGNWDLVGNNTPIFFIRDALLFPSFIHSQKRNPQTHLKDPDMVWDFWSLRPESLHQVSFLFSDRGIPDGHRHMNGYGSHTFKLVNANGEAVYCKFHYKTDQGIKNLSVEDAARLAHEDPDYGLRDLFNAIATGNYPSWTLYIQVMTFSEAEIFPFNPFDLTKVWPHGDYPLIPVGKLVLNRNPVNYFAEVEQLAFDPSNMPPGIEPSPDKMLQGRLFAYPDTHRHRLGPNYLQIPVNCPYRARVANYQRDGPMCMMDNQGGAPNYYPNSFSAPEHQPSALEHRTHFSGDVQRFNSANDDNVTQVRTFYLKVLNEEQRKRLCENIAGHLKDAQLFIQKKAVKNFSDVHPEYGSRIQALLDKYNEEKPKNAVHTYVQHGSHLSAREKANL
B2: derivatised catalase: catalase derivatised with activated colominic acid for 48 hours in the presence of SDS at 0.01, 0.02 or 0.029 % by weight (conjugate, UniProt P00432 2-527, looked up)
Catalase: B1 Catalase
modifications: colominic acid conjugate

Key:
[1] = Catalase determination (enzyme activity: time for hydrogen peroxide absorbance to drop from 0.450 to 0.400); assay type: biochemical; conditions: for Time for Δ Ab: absorbance drop 0.45 to 0.40
Text: (§1) Catalase is a tetrameric haemprotein that catalyses the degradation of hydrogen peroxide to oxygen and water. The reaction can be used to determine enzyme activity. The reaction is a first order reaction, whereby the amount of peroxide substrate decomposed is directly proportional to the concentration of both substrate and enzyme. Provided the concentration of substrate is constant between experiments, any difference in decomposition rate will therefore be a function of enzyme activity present. In the present examples, the drop in absorbance hydrogen peroxide at […] from 0.450 to 0.400, corresponding to the decomposition of 3.45 μ moles of hydrogen peroxide in a cuvette having a reaction volume of 3 ml, is determined.
The derivatised catalase compounds were also tested against native catalase for their enzyme activity. The results for catalase alone in FIG. 3 show the effect of subjecting catalase to the reaction conditions but without the addition of activated colominic acid. […] The […] is greater when the polysialylation takes place in the presence of SDS.
The derivatised catalase products were assessed for their catalase activity using the general test described above. The times taken for the enzymes to reduce the absorbance from 0.45 to 0.40 are shown in table 1 as compared to native catalase.

[2] = Hanes Woolf plot at different concentrations of hydrogen peroxide (Km); assay type: biochemical; conditions: substrate hydrogen peroxide, read-out: Km (substrate concentration at which the reaction rate is half of its maximal value)
Text: as §1
Native catalase, catalase derivitised using 1×10^−3M SDS, for a reaction period of 48 hours, and catalase derivatised using the same reaction time but in the absence of SDS, were compared at different concentrations of hydrogen peroxide to form Hanes Woolf plot.

Molecule	Time for Δ Ab ([1]; Concentration SDS 0 %) [min]	enzyme activity (FIG. 3) ([1]; after the derivatisation reaction conditions, up to 48 hours at 35 to 40° C.)	Km [2] [mM]	Time for Δ Ab ([1]; SDS 0.01 % in derivatisation, 48 hours) [min]	Time for Δ Ab ([1]; SDS 0.02 % in derivatisation, 48 hours) [min]	Time for Δ Ab ([1]; SDS 0.029 % (1×10^−3M) in derivatisation, 48 hours) [min]
B1	4	catalase activity is lost under those conditions	84			
B2				13	21	44

Reference: patent US6962972B2, “Derivatization of proteins” (Lipoxen Technologies Limited, priority 2000, dated 2005)
